Conditions in all cases: protein: recombinant; tags: N-terminal superfolder GFP; Ni-NTA purified; label: 5' Alexa647
One data set deals with T1, GFP-Pif1 T301A (Saccharomyces cerevisiae, UniProt P07271 40-859, T301A).
T1 sequence: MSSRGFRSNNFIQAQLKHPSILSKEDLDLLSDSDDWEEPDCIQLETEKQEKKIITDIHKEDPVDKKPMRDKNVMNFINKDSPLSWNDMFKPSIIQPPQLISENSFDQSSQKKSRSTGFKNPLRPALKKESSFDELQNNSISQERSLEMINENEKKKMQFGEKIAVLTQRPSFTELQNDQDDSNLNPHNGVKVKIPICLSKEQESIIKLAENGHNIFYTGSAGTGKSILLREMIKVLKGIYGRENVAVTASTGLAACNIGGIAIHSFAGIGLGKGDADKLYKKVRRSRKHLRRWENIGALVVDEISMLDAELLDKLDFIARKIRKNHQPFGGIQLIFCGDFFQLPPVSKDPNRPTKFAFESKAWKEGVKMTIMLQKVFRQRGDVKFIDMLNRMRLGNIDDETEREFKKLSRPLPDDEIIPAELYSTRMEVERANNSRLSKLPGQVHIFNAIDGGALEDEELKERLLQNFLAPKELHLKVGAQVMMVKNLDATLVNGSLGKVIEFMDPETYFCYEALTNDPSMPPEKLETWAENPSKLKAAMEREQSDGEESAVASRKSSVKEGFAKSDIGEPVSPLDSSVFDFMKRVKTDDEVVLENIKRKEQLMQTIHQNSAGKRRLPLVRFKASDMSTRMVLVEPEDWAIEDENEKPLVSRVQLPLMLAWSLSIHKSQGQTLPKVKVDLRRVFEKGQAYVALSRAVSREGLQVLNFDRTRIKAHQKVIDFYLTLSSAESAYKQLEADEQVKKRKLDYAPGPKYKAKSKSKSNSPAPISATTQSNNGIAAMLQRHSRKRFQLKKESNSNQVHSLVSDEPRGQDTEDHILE
The experiment in a line: EMSA; no ATP, 5 mM Mg2+; up to 50 nM; 35 mM Tris-HCl pH 7.5, 1 mM DTT, 5 mM MgCl2, 60 mM KCl, 0.1 mg/ml BSA, no ATP, 30 min at 30 C; 5 nM ssDNA. In general terms: Mobility shift assays separate free from complexed probe on a gel.

For another data set, the target named is T2, GFP-Pif1 E724A (Saccharomyces cerevisiae, UniProt P07271 40-859, E724A).
T2 sequence: T1 sequence with A262T, E685A
Kind of data set: EMSA; no ATP, 5 mM Mg2+; 35 mM Tris-HCl pH 7.5, 1 mM DTT, 5 mM MgCl2, 60 mM KCl, 0.1 mg/ml BSA, no ATP, 30 min at 30 C; 5 nM ssDNA.

A further data set deals with T3, GFP-Pif1 L310A (Saccharomyces cerevisiae, UniProt P07271 40-859, L310A).
T3 sequence: T1 sequence with A262T, L271A
The data set is described as above.

Residue numbers refer to the chain shown, from its start.

Regarding GCTAGCAGTAGCCAGCATCGAACGTACGATCGGTAACGTA (ssDNA) [40-nt ssDNA], the binding result with GFP-Pif1 T301A is on record as “no binding”. For the same molecule, the equilibrium dissociation constant (Kd) (in general, the constant that tells how readily two partners part at equilibrium) with GFP-Pif1 E724A amounted to 19 nM; with GFP-Pif1 L310A, 27.8 nM.
